Measured values: US20170275344A1, “POLYPEPTIDES AND USES THEREOF AS A DRUG FOR TREATMENT OF AUTOIMMUNE DISORDERS” (Compugen Ltd., priority 2014, published 2017)

Test system: SJL/J mice
Assay: BBB breakdown and inflammation by fluorescence molecular tomography in adoptive transfer R-EAE
Assay type: in vivo, mouse
Details: Day +30, treatment from onset of remission
Procedure: […] At the time of imaging mice were anesthetized by administration of sodium pentobarbital (50 mg/kg) and then imaged using the FMT 2500 fluorescence molecular tomography in vivo imaging system. The data is presented as pmol of CathepsinB or AngioSense present within the brain (B) or spinal cord (C).
Commercially available near infrared (NIR) imaging agents were used to perform tomographic imaging (PerkinElmer Inc., Boston, Mass.). […] For the in vivo imaging, mice were injected intravenously with 4 nmol of NIR fluorescent agent 24 hrs prior to imaging, and imaged following the last treatment with Control Ig or C1ORF32 ECD-Fc (SEQ ID NO: 42) (Day +30 post-PLP139-151 blast cell transfer). At the time of imaging, mice were anesthetized by administration of sodium pentobarbital (50 mg/kg) and then imaged using the FMT 2500 fluorescence molecular tomography in vivo imaging system (PerkinElmer Inc., Boston, Mass.). […] Appropriate optical filters allowed the collection of both fluorescence and excitation datasets, and the multiple source-detector fluorescence projections were normalized to the paired collection of laser excitation data. […] The total amount of fluorescence (in pmoles) in different organ sites was automatically calculated relative to internal standards generated with known concentrations of appropriate FR/NIR dyes. […]

B1: C1ORF32 ECD-Fc (SEQ ID NO:42): fusion protein of human C1ORF32 ECD fused to mouse immunoglobulin Fc (human-mouse fusion protein) (protein)
chain: LQVTVPDKKKVAMLFQPTVLRCHFSTSSHQPAVVQWKFKSYCQDRMGESLGMSSTRAQSLSKRNLEWDPYLDCLDSRRTVRVVASKQGSTVTLGDFYRGREITIVHDADLQIGKLMWGDSGLYYCIITTPDDLEGKNEDSVELLVLGRTGLLADLLPSFAVEIMGSENLYFQGSGEPRGPTIKPCPPCKCPAPNLLGGPSVFIFPPKIKDVLMISLSPIVTCVVVDVSEDDPDVQISWFVNNVEVHTAQTQTHREDYNSTLRVVSALPIQHQDWMSGKEFKCKVNNKDLPAPIERTISKPKGSVRAPQVYVLPPPEEEMTKKQVTLTCMVTDFMPEDIYVEWTNNGKTELNYKNTEPVLDSDGSYFMYSKLRVEKKNWVERNSYSCSVVHEGLHNHHTTKSFSRTPGK
modifications: Fusion protein human C1ORF32-ECD fused to mouse IgG2a Fc
- monocyte/macrophage activity in the brain and spinal cord (lysosomal CathepsinB activity): reduced lysosomal CathepsinB activity; however this effect did not reach statistical significance
- vascular leakage in the brain and spinal cord (AngioSense720 levels) (significant): decreased vascular leakage
